Measurements taken from patent US20240117061A1.
Read-outs that look alike come from different tables or passages of the source.

Tests used:
[1] = molecular target: recombinant human BCMA-his fusion protein (ACRO Biosystem, Cat. No. BCA-H522y) (human) (UniProt Q02223); assay: competitive ELISA, coated huBCMA-his, competitor 83A10-biotin
[2] = molecular target: recombinant human BCMA-his fusion protein (ACRO Biosystem, Cat. No. BCA-H522y) (human) (UniProt Q02223); assay: ELISA, coated antigen
[3] = molecular target: human BCMA on cells (NCI-H929, U266B1, HEK293 huBCMA) (human) (UniProt Q02223); assay: flow cytometry on NCI-H929 cells
[4] = molecular target: recombinant human BCMA-his fusion protein (ACRO Biosystem, Cat. No. BCA-H522y) (human) (UniProt Q02223); assay: competitive ELISA, coated huBCMA-his, competitor 83A10-biotin; remark: listed apart in the source

Sequence of positive control antibody 83A10 (VH): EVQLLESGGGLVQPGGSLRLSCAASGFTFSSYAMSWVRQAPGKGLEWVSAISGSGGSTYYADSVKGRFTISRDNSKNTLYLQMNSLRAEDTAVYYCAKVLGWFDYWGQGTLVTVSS
Sequence of positive control antibody 83A10 (VL): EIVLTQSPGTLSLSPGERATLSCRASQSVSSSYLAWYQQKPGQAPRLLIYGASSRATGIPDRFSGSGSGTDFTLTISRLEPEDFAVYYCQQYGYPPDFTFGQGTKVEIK
Sequence of recombinant human BCMA-his fusion protein (ACRO Biosystem, Cat. No. BCA-H522y) (human) (Q02223 1-54): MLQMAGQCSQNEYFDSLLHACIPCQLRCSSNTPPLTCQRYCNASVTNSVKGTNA
Sequence of human BCMA on cells (NCI-H929, U266B1, HEK293 huBCMA) (human) (Q02223 whole entry, the tested form may be a part): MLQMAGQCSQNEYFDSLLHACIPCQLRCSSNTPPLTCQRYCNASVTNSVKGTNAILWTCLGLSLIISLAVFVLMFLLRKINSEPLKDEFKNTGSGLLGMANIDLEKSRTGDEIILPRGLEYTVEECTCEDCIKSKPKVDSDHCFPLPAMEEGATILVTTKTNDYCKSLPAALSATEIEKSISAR

IC50 [1]: 15 µg/mL
EC50 [2]: 0.0253 nM
EC50 [3]: 8.69 nM
IC50 [4]: 9.8 µg/mL
Substance: positive control antibody 83A10
